Experiments:
[1] = molecular target: recombinant RBD protein of wild-type SARS-CoV-2 (ELISA antigen) (SARS-CoV-2 wild-type, UniProt P0DTC2)
[2] = molecular target: recombinant wild-type SARS-CoV-2 S trimer (ELISA antigen) (SARS-CoV-2 wild-type, UniProt P0DTC2)

B1: P2S-2A6 (antibody, V domains shown)
VH: EVQLVESGGGLVQPGRSLRLSCAASGMTFDDYDMHWVRQVPGKGLEWVSGISWNGGIIGYADSVKGRFTISRDNAKTSLYLQMNSLRAEDTALYYCAKVAGRGDYDYYYGMDVWGQGTTVTVSS
VL: QSVLTQPPSVSGAPGQRVTISCTGSSSNIGAGYDVHWYQQLPGTAPKLLIYGNNNRPSGVPDRFSGSKSGTSASLAITGLQAEDEADYYCQSYDSSLSGSVFGGGTKLTVL
B1: binds [1]; binds [2].

B2: P2S-1H6 (antibody, V domains shown)
VH: EVQLVESGGGLVQPGRSLRLSCAASGFTFDDYDMHWVRQAPGKGLEWVSGISWNGGIIGYADSVKGRFTISRDNAKTSLYLQMNSLKPEDTALYYCAKVAGRGDYDYYYGMDVWGQGTTVTVSS
VL: QSVLTQPPSVSGAPGQRVTISCTGSSSNIGAGYDVHWYQQLPGTAPKLLIYGNNNRPSGVPDRFSGSKSGTSASLAITGLQAEDEADYYCQSYDSSLSGSVFGGGTKLTVL
B2: binds [1]; binds [2].

B3: P5S-1D8 (antibody, V domains shown)
VH: EVQLVESGGGLVQPGRSLRLSCAASGFTFDDYAMYWVRQAPGKGLEWVSGVSWNSGTIGYADSVKGRFIISRDNAKNSLYLQMRSLRTEDTALYYCAKDSATRYYSGSDYTSYGMDVWGQGTTVTVSS
VL: QSALTQPASVSGSPGQSITVSCTGTSSDIGDYNYVSWYQQHPGKAPKLMIYDVSNRPSGASNRFSGSKSGNTASLTISGLQAEDEADYYCSSYTSSSTVVFGGGTKVTVL
B3: binds [1]; binds [2].

B4: P2-1G1 (antibody, V domains shown)
VH: EVQLVESGGGLVQPGRSLRLSCAASGFTFDDYAMHWVRQAPGKGLEWVSGMSWNSGTIGYADSVKGRFTISRDNAKNSLYLQMNSLRPEDTALYYCAKDIGGAEMATRNYGMDVWGQGTTVTVSS
VL: QSALTQPASVSGSPGQSITISCTGASSDVGGYNYVSWYQQHPGKAPKLMIYDVSERPSGVSNRFSGSKSGNTASLTISGLQAEDEADYYCSSYTSSSTLVFGGGTKLTVL
B4: binds [1]; binds [2].

B5: P186-2B1 (antibody, V domains shown)
VH: EVQLVESGGGLVQPGGSLRLSCAASGFTVSSNYMSWVRQAPGKGLEWVSVIYSGGSTYYTDSVKGRFTISRHNSKNTLYLQMNSLRVEDTAVYYCARVGTNYINNSGWYFDYWGQGTLVTVSS
VL: not shown
B5: binds [1]; binds [2].

B6: P104-1G2 (antibody, V domains shown)
VH: QLQLQESGPGLVKPSETLSLTCTVSGGSISSSSYYWGWIRQPPGKGLEWIGSIYYGGSTYYNPSLKSRVTISVDTSKNQFSLKLSSVTAADTAVYYCARSLGIFDYWGQGTLVTVSS
VL: DIQMTQSPSSLSASVGDRVTITCRASQGISNSLAWYQQKPGKAPKLLLYGASTLESGVPSRFSGSGSATDYTLTISSLQPEDFATYYCQQYYSNPPYTFGQGTKLEIK
B6: binds [1]; binds [2].

B7: P195-2A3 (antibody, V domains shown)
VH: QVTLRESGPALVKPTQTLTLTCTFSGFSLSTSGMCVSWIRQPPGKALEWLALIDWDDDKYYSTSLKTRLTISKDTSKNQVVLRMTNMDPVDTATYYCARSWVGGGLDVWGQGTTVTVSS
VL: not shown
B7: binds [1]; binds [2].

B8: P5-2H11 (antibody, V domains shown)
VH: EVQLVESGGGLIQPGGSLRLSCAASEFTVSSNYMSWVRQAPGKGLEWVSIIYSGGSTFYADSVKGRFTISRDNSQNTLYLQMNSLRAEDTAVYYCARTLPLYGDYFDYWGQGTLVTVSS
VL: QSVLTQPPSVSGAPGQRVTISCTGSSSNIGAGYDVHWYQQLPGTAPKLLIYGNNNRPSGVPDRFSGSKSGTSASLAITGLQPEDEADYYCQSYDSSLSVVFGGGAKLTVL
B8: binds [1]; binds [2].

B9: P5S-3D10 (antibody, V domains shown)
VH: EVQLVESGGDLVQPGRSLRLSCAASGFTFSLFAMSWVRQAPGKGLEWVSTISGRGDSSYYADSVKGRFTISRDNSKNTLYLQITGLRAEDTAVYYCAKGVDGDYGNWFDPWGQGALVTVSS
VL: SYVLTQPPSVSVAPGKTARITCGGNNIGSKSVHWYQQKPGQAPVLVIYYDSDRPSGIPERISGSNSGNTATLTISRVEAGDEADYYCQVWHSSSVIFGGGTKLTVL
B9: binds [1]; binds [2].

B10: P10S-1D8 (antibody, V domains shown)
VH: QMQLVQSGPEVKKPGTSVKVPCKASGFTFSSSAVQWVRQARGQRLEWIGWIVVGSGNTNYAQKFQERVTITRDMSTSTAYMELSSLRSEDTAVYYCAAPGCNSTSCYDGFDIWGQGTMVTVSS
VL: not shown
B10: binds [1]; binds [2].

B11: P2-2D8 (antibody, V domains shown)
VH: EVQLVESGGGLVKPGGSLRLSCAASGFTFSNAWMNWVRQAPGKGLEWVGRIKSKADGGTTDYAAPVKGRFTISRDDSKNTLYLQMNSLKTDDTAVYYCTTTRAVAATLNFLFSYYDGMDVWGQGTTVTVSS
VL: NFMLTQPHSVSESPGKTVTISCTGSSGSIASNYVQWYQQRPGSAPTTVIYEDNQRPSGVPDRFSGSIDSSSNSASLTISGLKTEDEADYYCQSYDSNNHLVLFGGGTKLTVL
B11: binds [1]; binds [2].

B12: P2-2H8 (antibody, V domains shown)
VH: QVQLVQSGAEVKKPGSSVKVSCKASGGTFSSYAISWVRQAPGQGLEWMGRIISMLGIANYAQKFQGRVTITADKSTSTAYMELSSLRSEDTAIYFCARDPDIHYDSSGYSHYYGMDVWGQGTTVTVSS
VL: DIVMTQSPLSLPVTPGEPASISCRSSQSLLHGNGYNYLDWYLQRPGQSPQLLIYLGSNRASGVPGRFSGSGSGTDFTLKISRVEAEDVGVYYCMQALQTLITFGQGTQLEIK
B12: binds [1]; binds [2].

B13: P195-1E11 (antibody, V domains shown)
VH: EVQLVESGGGLVQPGRSLRLSCAASGFTFDDYAMHWVRQAPGKGLEWVSGISWNSGSIVYADSVKGRFTISRDNAKNSLYLQMNSLRAEDTALYYCAKDSEDCSSTNCYFDYWGQGTLVTVSS
VL: not shown
B13: binds [1]; binds [2].

B14: P2-1D5 (antibody, V domains shown)
VH: QVQLVESGGGVVQPGRSLRLSCAASGFTFSSSVMHWVRQAPGKGLEWVALIWYDGSNKYYADSVKGRFTISRDNSKNTLYLQMNSLRAEDTAVYYCARDREITMTTFDYWGQGTLVTVSS
VL: not shown
B14: binds [1]; binds [2].

B15: P195-1B7 (antibody, V domains shown)
VH: QITLKESGPTLVKPTQTLTLTCTFSGFSLSTSGVGVGWIRQPPGKALEWLALIYWDDDKRYSPSLKSRLTITKDTSKNQVVLTMTNMDPVDTATYYCAHSGYSGYDWRGFDYWGQGTLVTVSS
VL: SYELTQPPSVSVSPGQTARITCSADALPKQYAYWYQQKPGQAPVLVIYKDSERPSGIPERFSGSSSGTTVTLTISGVQAEDEADYYCQSADSSGTYPVVFGGGTKLTVL
B15: binds [1]; binds [2].

B16: P5-1A7 (antibody, V domains shown)
VH: EVQLVESGGDLIQPGGSLRLSCAASGFTVSSNYMSWVRQAPGKGLEWVAVIYSGGSTYYADSVKGRFTISRDNSKNTLYLQMNSLRAEDTAVYYCARDYGDFYFDYWGQGTLVTVSS
VL: not shown
B16: binds [1]; binds [2].

B17: P5S-2G9 (antibody, V domains shown)
VH: QVTLRESGPALVKPTQTLTLTCTFSGFSLRTTGMCVSWIRQPPGKALEWLALIDWDGDKYYATSLETRLTISKDTSENQVVLTMTNMDPVDTATYYCVRTLRLRWLDFWGQGTLVTVSS
VL: DIQMTQSPSSLSASVGDRVTITCRASQSIGTSLNWYQQKPVKAPNLLIYGASSLQSGVPSRFSGSGSGTDFTLTISSLQPEDFATYYCQQGYTTPLTFGGGTKVEIK
B17: binds [1]; binds [2].

B18: P195-2B8 (antibody, V domains shown)
VH: EVQLVESGGGLIHPGGSLRLSCAASGFTVSSNYMTWVRQAPGKGLEWVSVIYSGGSTFYADSVKGRFTISRDNSKNTLYLQMNSLRAQDTAVYYCARDLSVYGMDVWGQGTTVTVSS
VL: DIQLTQSPSFLSASVGDRVTITCRASQGISSYLAWYQQKPGKAPKLLIYAASTLQSGVPSRFSGSGSGTEFTLTISSLQPEDFATYYCQQLNSDSFTFGPGTKVDIK
B18: binds [1]; binds [2].

B19: P2-1G7 (antibody, V domains shown)
VH: EVQLVESGGGLIQPGGSLRLSCAASGFIVSSNYMTWVRQAPGKGLEWVSVLFSGGSTFYADSVKGRFTISRDNSKNTLYLQMNSLRAEDTAVYYCARENGGYYFDYWGQGTLVTVSS
VL: DIQLTQSPSFLSASVGDRVTITCRASQGISTYLAWYQQKPGKAPKLLIYAASTLQSGVPSRFSGSGSGTEFTLTISSLQPEDFATYYCQQLNNYPPDFGGGTKVEIK
B19: binds [1]; binds [2].

B20: P195-2A1 (antibody, V domains shown)
VH: EVQLVESGGGLVQPGGSLRLSCAASGFTVSSNYMSWVRQAPGKGLEWVSVIYSGGSTYYADSVKGRFTISRDNSKNTLYLQMNSLRAEDTAVYYCARGEGGDLPFDYWGQGTLVTVSS
VL: QSALTQPASVSGSPGQSITISCTGTSSDVGGYYYVSWFQQHPGEAPKLMIFDVSKRPSGVSNRFSGSKSGNTASLTISGLQAEDEADYYCSSYTSSSTSHVLFGGGTKLTVL
B20: binds [1]; binds [2].

B21: P10S-2F9 (antibody, V domains shown)
VH: QVTLRESGPALVKPTQTLPLTCTFSGFSLSTSGMCVSWIRQPPGKALEWLALIDWDDNKYYSTSLKARLTISKDTSKNQVVLTMTNMDPVDTATYYCARIPALLRYLDKFYYFGMDVWGQGTTVTVSS
VL: QSVLTQPPSVSAAPGQKVTISCSGSSPNIGNNYVSWYQQLPGTAPKLLIYDNNKRPSGIPDRFSGSKSGTSATLGITGLQTGDEAGYYCGTWDSSLSAVVFGGGTKLTVL
B21: binds [1]; binds [2].

B22: P186-1H2 (antibody, V domains shown)
VH: EVQLVESGGGLVQPGRSLRLSCAASGFTFGDYAMHWVRQSPGKGLEWVSGITWNSAGIGYADSVKGRFTISRDNAKNSLYLQMNSLRVEDTALYYCAKAPKWGGVDYLFDYWGQGTLVTVSS
VL: not shown
B22: binds [1]; binds [2].

Reference: publication PMC10063446 (Nature Immunology, 2023)
